Measurements as given in the supplement of paper PMC9112550, “Optimization of the antimicrobial peptide Bac7 by deep mutational scanning” (BMC Biology, 2022).

System: Escherichia coli TOP10
Experiment: shrunken log2 fold change of peptide-encoding DNA abundance (4.5 h post-induction vs induction); higher = less antimicrobial activity (less host growth inhibition)
Conditions: time post-induction: 4.5 h; library: site-saturation at positions 5, 18, 19, 20
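Note: peptides expressed intracellularly from a pBAD plasmid library in pooled LB shake-flask culture, induced with 0.3% L-arabinose, DNA abundance read by NGS, three biological replicates, DESeq2 with apeglm shrinkage.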

Sequence | shrunken log2 fold change
RRIRQRPPRLPRPRPRPGKIPRP | -0.0789
RRIRFRPPRLPRPRPRPTNLPRP | -0.291
RRIRARPPRLPRPRPRPGDEPRP | 0.393
RRIRQRPPRLPRPRPRPAKMPRP | -0.207
RRIRGRPPRLPRPRPRPRYGPRP | 0.134
RRIRTRPPRLPRPRPRPNCPPRP | -0.0894
RRIRHRPPRLPRPRPRPYYFPRP | -0.178
RRIRSRPPRLPRPRPRPAGTPRP | 1.67
RRIRARPPRLPRPRPRPKDPPRP | 0.211
RRIRSRPPRLPRPRPRPLGQPRP | -0.0571
RRIRSRPPRLPRPRPRPKMGPRP | -0.108
RRIRCRPPRLPRPRPRPSGQPRP | -0.0552
RRIRVRPPRLPRPRPRPYNNPRP | -1.16
RRIRWRPPRLPRPRPRPVNHPRP | -0.191
RRIRLRPPRLPRPRPRPMSRPRP | -0.00152
RRIRQRPPRLPRPRPRPCPAPRP | -0.00924
RRIRYRPPRLPRPRPRPKYQPRP | -0.213
RRIRDRPPRLPRPRPRPNAVPRP | -0.101
RRIRGRPPRLPRPRPRPQVQPRP | 0.273
RRIRKRPPRLPRPRPRPYQVPRP | 0.0805
RRIRDRPPRLPRPRPRPDMNPRP | 0.287
RRIRWRPPRLPRPRPRPVTNPRP | 0.266
RRIRLRPPRLPRPRPRPPVQPRP | 0.553
RRIRTRPPRLPRPRPRPPIYPRP | -0.305
RRIRARPPRLPRPRPRPMIHPRP | -0.119

Sequence | shrunken log2 fold change
RRIRHRPPRLPRPRPRPCYHPRP | -0.00149
RRIRHRPPRLPRPRPRPHRAPRP | 0.0912
RRIRMRPPRLPRPRPRPKPVPRP | 0.895
RRIRRRPPRLPRPRPRPVNDPRP | 0.52
RRIRRRPPRLPRPRPRPAVVPRP | 0.518
RRIRWRPPRLPRPRPRPIYCPRP | -0.581
RRIRSRPPRLPRPRPRPNSLPRP | -0.165
RRIRGRPPRLPRPRPRPFQFPRP | 0.00963
RRIRPRPPRLPRPRPRPGTFPRP | -0.226
RRIRCRPPRLPRPRPRPVPVPRP | 0.0927
RRIRVRPPRLPRPRPRPVLWPRP | 0.453
RRIRPRPPRLPRPRPRPFGVPRP | -0.112
RRIRVRPPRLPRPRPRPPTPPRP | 0.548
RRIRNRPPRLPRPRPRPIRHPRP | -0.0817
RRIRWRPPRLPRPRPRPHQPPRP | 0.145
RRIRARPPRLPRPRPRPERYPRP | 0.0113
RRIRKRPPRLPRPRPRPRYRPRP | -0.0384
RRIRGRPPRLPRPRPRPAFYPRP | 0.178
RRIRPRPPRLPRPRPRPQRAPRP | 0.381
RRIRLRPPRLPRPRPRPHTLPRP | -0.224
RRIRGRPPRLPRPRPRPDEAPRP | 1.56
RRIRWRPPRLPRPRPRPKQLPRP | -0.0021
RRIRKRPPRLPRPRPRPGRMPRP | 0.554
RRIRCRPPRLPRPRPRPDNPPRP | -0.137
RRIRKRPPRLPRPRPRPWEFPRP | 0.504

Sequence | shrunken log2 fold change
RRIRTRPPRLPRPRPRPSHNPRP | -0.681
RRIRTRPPRLPRPRPRPISKPRP | -0.17
RRIRWRPPRLPRPRPRPFDGPRP | -0.0363
RRIRCRPPRLPRPRPRPWFNPRP | -1.12
RRIRYRPPRLPRPRPRPPFRPRP | -0.0932
RRIRERPPRLPRPRPRPNTAPRP | 0.0197
RRIRTRPPRLPRPRPRPNQYPRP | -0.446
RRIRWRPPRLPRPRPRPDCIPRP | 0.0529
RRIRMRPPRLPRPRPRPPEYPRP | -0.035
RRIRWRPPRLPRPRPRPMMVPRP | 0.0168
RRIRSRPPRLPRPRPRPEKDPRP | 0.124
RRIRCRPPRLPRPRPRPTGVPRP | 0.619
RRIRARPPRLPRPRPRPPWLPRP | 0.495
RRIRRRPPRLPRPRPRPHNPPRP | -0.0181
RRIRERPPRLPRPRPRPRGGPRP | 0.376
RRIRCRPPRLPRPRPRPNGRPRP | 0.0604
RRIRGRPPRLPRPRPRPIRGPRP | 0.29
RRIRMRPPRLPRPRPRPSPQPRP | 0.716
RRIRHRPPRLPRPRPRPHMKPRP | 0.181
RRIRARPPRLPRPRPRPQWMPRP | 0.0371
RRIRYRPPRLPRPRPRPHSQPRP | -0.71
RRIRMRPPRLPRPRPRPFVLPRP | -0.691
RRIRNRPPRLPRPRPRPCKSPRP | -0.0291
RRIRARPPRLPRPRPRPIIFPRP | -0.323
RRIRKRPPRLPRPRPRPNMIPRP | 0.0348

Sequence | shrunken log2 fold change
RRIRGRPPRLPRPRPRPWAMPRP | 0.483
RRIRARPPRLPRPRPRPENEPRP | 0.868
RRIRIRPPRLPRPRPRPYHTPRP | -1.25
RRIRHRPPRLPRPRPRPSDKPRP | -0.355
RRIRARPPRLPRPRPRPINKPRP | -0.311
RRIRDRPPRLPRPRPRPEAPPRP | 0.412
RRIRTRPPRLPRPRPRPFHAPRP | -0.0296
RRIRRRPPRLPRPRPRPEPIPRP | 0.378
RRIRDRPPRLPRPRPRPPLIPRP | 0.129
RRIRWRPPRLPRPRPRPSICPRP | -0.0271
RRIRERPPRLPRPRPRPGFCPRP | -0.122
RRIRSRPPRLPRPRPRPSGSPRP | -0.151
RRIRMRPPRLPRPRPRPFKPPRP | -0.119
RRIRPRPPRLPRPRPRPLSSPRP | 0.00895
RRIRLRPPRLPRPRPRPYPCPRP | 0.0537
RRIRKRPPRLPRPRPRPEHPPRP | 0.822
RRIRTRPPRLPRPRPRPQVMPRP | -0.133
RRIRTRPPRLPRPRPRPQPFPRP | 0.0325
RRIRYRPPRLPRPRPRPCYTPRP | -0.5
RRIRQRPPRLPRPRPRPVTFPRP | -0.0496
RRIRWRPPRLPRPRPRPICTPRP | 0.537
RRIRPRPPRLPRPRPRPELSPRP | 0.46
RRIRMRPPRLPRPRPRPPAWPRP | 1.22
RRIRGRPPRLPRPRPRPDLTPRP | 0.219
RRIRSRPPRLPRPRPRPGDGPRP | 0.78

Sequence | shrunken log2 fold change
RRIRFRPPRLPRPRPRPMDAPRP | 0.111
RRIRVRPPRLPRPRPRPVMFPRP | -0.305
RRIRGRPPRLPRPRPRPYCDPRP | 0.226
RRIRLRPPRLPRPRPRPCGKPRP | -0.196
RRIRTRPPRLPRPRPRPCVWPRP | -0.000289
RRIRHRPPRLPRPRPRPCYSPRP | -0.0983
RRIRFRPPRLPRPRPRPRFNPRP | -0.196
RRIRSRPPRLPRPRPRPCTAPRP | -0.231
RRIRCRPPRLPRPRPRPDSDPRP | -0.0612
RRIRARPPRLPRPRPRPSIMPRP | -0.178
RRIRIRPPRLPRPRPRPYHPPRP | -0.0475
RRIRERPPRLPRPRPRPMEDPRP | -0.0739
RRIRTRPPRLPRPRPRPTGIPRP | 0.00119
RRIRQRPPRLPRPRPRPRVIPRP | 0.113
RRIRHRPPRLPRPRPRPCKPPRP | -0.314
RRIRPRPPRLPRPRPRPKAVPRP | 0.0993
RRIRGRPPRLPRPRPRPMLIPRP | 0.312
RRIRKRPPRLPRPRPRPGCSPRP | 0.289
RRIRHRPPRLPRPRPRPVYGPRP | -0.528
RRIRSRPPRLPRPRPRPASCPRP | 0.131
RRIRDRPPRLPRPRPRPMHAPRP | 0.121
RRIRNRPPRLPRPRPRPCTEPRP | -0.347
RRIRIRPPRLPRPRPRPFEEPRP | -0.569
RRIRTRPPRLPRPRPRPDERPRP | -0.146
RRIRYRPPRLPRPRPRPRPVPRP | 0.0983
